Tests used:
[1] = biological target: T1, human full-length Notch3 with C-terminal FLAG tag, stably expressed on 293 FlpIn (TREx) cells (human, UniProt Q9UM47 40-2321); assay: FACS, phage scFv
T1 construct: whole, on cells; made by the same strategy as the Notch1 line; also called 293-N3; hN3

[2] = biological target: T2, human full-length Notch1 with C-terminal FLAG tag, stably expressed on 293 FlpIn (TREx) cells (human, UniProt P46531 19-2555); assay: FACS, phage scFv
T2 construct: tetracycline/doxycycline-induced expression from pcDNA5/FRT/TO-HN1+FLAG; also called hN1; 293_N1

B1: N1wc13 (scFv, V domains shown)
VH: QVQLVQSGAEVKKPGASVKVSCKASGYNFTGYYMHWVRQAPGQGLEWMGWINPNSGGTNYAQKFQGRVTMTRETSISTAYMELSRLRSDDTAVYYCATDSFDYWGRGTMVTVSS
VL: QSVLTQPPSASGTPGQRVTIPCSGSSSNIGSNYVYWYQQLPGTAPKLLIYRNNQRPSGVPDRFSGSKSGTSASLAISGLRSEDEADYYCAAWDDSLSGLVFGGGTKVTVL
notes: phage scFv
binding result [1]: binds

B2: N1wc202 (scFv, V domains shown)
VH: EVQLVQSGAEVKKPGASVKVSCKASGYNFTGYYMHWVRQAPGQGLEWMGWINPNSGGTNYAQKFQGRVTMTRDTSISTAYMELSRLRSDDTAVYYCATDSFDYWGRGTLVTVSS
VL: SYELTQPPSVSGTPGQRVTISCSGSSSNIESNAVHWYQHLPGRAPKLLIFSHNQRPSGVPARFSGSKSGTSASLAISGLQSEDEADYYCAAWDDSLSGYVFASGTKLTVL
notes: phage scFv
binding result [2]: binds

B3: hN1S3-141 (scFv, V domains shown)
VH: QVQLVQSGAEVKKPGASVKVSCKASGYNFTGYYIHWVRQAPGQGLEWMGWINPNSGGTNYAQKFQGRVIMTRDTSISTAYMELSRLRSDDTAVYYCATDSFDYWGRGTLVTVSS
VL: QSVLTQPPSASGTPGQRVTISCSGSYSNIGSNYVYWYQQFPGTAPKLLIYTNNQRPSGVPDRFSGSKSGSSASLAISGLRSEDEADYYCAAWDDSVGVLLFGGGTKLTVL
notes: phage scFv
binding result [1]: binds

B4: N1wc160 (scFv, V domains shown)
VH: QVQLQESGAEVKKPGASVKVSCKASGYNFTGYYMHWVRQAPGQGLEWMGWINPNSGGTNYAQKFQGRVTMTRDTSISTAYMELSRLRSDDTAVYYCATDSFDYWGRGTMVTVSS
VL: SYVLTQPPSASGTPGQRVTISCSGSSSNIGSNTVHWYQQLPETAPKLLIYTNNQRPSGVPDRFSGSKSGTSASLAISGLQSEDEADYYCASWDDSLKAYVFGTRTKLTVL
notes: phage scFv
binding result [2]: binds

B5: N1wc72 (scFv, V domains shown)
VH: EVQLVQSGAEVKKPGASVKVSCKASGYNFTGYYMHWVRQAPGQGLEWMGWINPNSGGTNYAQKFQGRVTMTRDTSISTAYMELSRLRSDDTAVYYCATDSFDYWGKGTMVTVSS
VL: QPVLTQPPSASGTPGQRVTISCSGSYSNIGSNYVYWYQQFPGTAPKLLIYTNNQRPSGVPDRFSGSKSGSSASLAISGLRSEDEADYYCAAWDDSVGVLLFGGGTKVTVL
notes: phage scFv
binding result [1]: binds

B6: hN1S3-035 (scFv, V domains shown)
VH: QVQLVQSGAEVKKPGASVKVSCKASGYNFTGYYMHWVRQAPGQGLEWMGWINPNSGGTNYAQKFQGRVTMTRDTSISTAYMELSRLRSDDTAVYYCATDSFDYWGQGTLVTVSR
VL: QAVLTQPSSVSGAPGQRVTISCTGSSSNIGAGYDVHWYQQLPGTAPKLLIYGNSNRPSGVPDRFSGSKSGTSASLAITGLQAEDEADYYCQSYDSSLSGSVFGGGTKVTVL
notes: phage scFv
binding result [1]: binds

B7: hN1S3-184 (scFv, V domains shown)
VH: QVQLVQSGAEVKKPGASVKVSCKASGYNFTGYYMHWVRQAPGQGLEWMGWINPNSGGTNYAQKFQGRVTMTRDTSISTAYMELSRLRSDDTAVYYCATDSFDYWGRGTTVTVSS
VL: QSVLTQPPSASGTPGQRVTISCSGSSSNIGGNYVYWYQQLPGTAPKLLIYRSNQRPSGVPDRFSGSKSGTSASLAISGLRSEDEADYYCAAWDDSLHGVIFGGGTKLTVL
notes: phage scFv
binding result [1]: binds

B8: N1wc225 (scFv, V domains shown)
VH: QVQLQQSGAEVKKPGASVKVSCKASGYNFTGYYMHWVRQAPGQGLEWMGWINPNSGGTNYAQKFQGRVTMTRDTSISTAYMELSRLRSDDTAVYYCATDSFDYWGRGTMVTVSS
VL: QSVVTQPPSVSGAPGQRVTISCTGSSSNIGAGYDVHWYQQLPGTAPKLLIYGNSNRPSGVPDRFSGSKSGTSASLAITGLQAEDEADYYCQSYDSSLSGSVFGGGTKLTVL
binding result [1]: binds

B9: N1wc520 (scFv, V domains shown)
VH: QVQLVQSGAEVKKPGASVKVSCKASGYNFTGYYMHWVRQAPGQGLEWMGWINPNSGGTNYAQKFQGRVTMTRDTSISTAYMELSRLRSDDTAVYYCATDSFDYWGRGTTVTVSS
VL: SYVLTQPPSVSGTPGQRVTISCSGSSSNIESNAVHWYQHLPGRAPKLLIFSHNQRPSGVPARFSGSKSGTSASLAISGLQSEDEADYYCAAWDDSLSGYVFASGTKVTVL
notes: phage scFv
binding result [2]: binds

B10: N1wc130 (scFv, V domains shown)
VH: QVQLQQSGAEVKKPGASVKVSCKASGYNFTGYYMHWVRQAPGQGLEWMGWINPNSGGTNYAQKFQGRVTMTRDTSISTAYMELSRLRPDDTAVYYCATDSFDYWGKGTMVTVSS
VL: QAVLTQPSSVSGAPGQRVTISCTGTGSNIGAGYDVHWYQQLPGTAPKLLIYANTNRPSGVPDRFSGSKSGTSASLAITGLQAEDEADYYCQSYDSSLSGSVFGGGTKVTVL
notes: phage scFv
binding result [1]: binds

B11: N1wc79 (scFv, V domains shown)
VH: QVQLQQSGAEVKKPGASVKVSCKASGYNFTGYYMHWVRQAPGQGLEWMGWINPNSGGTNYAQKFQGRVTMTRDTSISTAYMELSRLRSDDTAVYYCATDSFDYWGQGTMVTVSS
VL: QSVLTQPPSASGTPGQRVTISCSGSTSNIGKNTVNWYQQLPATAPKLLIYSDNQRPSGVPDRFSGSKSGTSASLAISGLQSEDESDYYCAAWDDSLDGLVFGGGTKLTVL
notes: phage scFv
binding result [1]: binds

B12: hN1S3-083 (scFv, V domains shown)
VH: QVQLQQSGPGLVKPSQTLSLTCAISGDSISSSSATWNWIRQSPSRGLEWLGRTYYRSKWYNDYAVSVKSRITIDPDTSKNQFSLQLNSVTPEDTAVYYCARQLGGRIEFWGQGTLVTVSS
VL: QSVLTQPPSASGSPGRSVTISCTGTSRDVGAYNYVSWYQQHPGEAPKLLISEVTKRPSGVPARFSASKSGNTASLTISGLQAEDEGDYYCSSYAGSDSWVFGGGTKLTVL
notes: phage scFv
binding result [1]: binds

B13: hN1S3-147 (scFv, V domains shown)
VH: QVQLVQSGPEVKKPGTSVKVSCKASGFTFTSSAVQWVRQARGQRLEWIGWIVVGSGNTNYAQKFQERVTITRDMSTSTAYMELSSLRSEDTAVYYCVADTVYWGKGTLVTVSS
VL: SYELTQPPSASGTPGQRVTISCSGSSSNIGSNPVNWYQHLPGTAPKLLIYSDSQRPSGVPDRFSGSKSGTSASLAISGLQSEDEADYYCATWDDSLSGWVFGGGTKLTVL
notes: phage scFv
binding result [1]: binds

B14: hN1S3-133 (scFv, V domains shown)
VH: QVQLVQSGPEVKKPGTSVKVSCKASGFTFTSSAVQWVRQARGQRLEWIGWIVVGSGNTNYAQKFQERVTITRDMSTSTAYMELSSLRSEDTAVYYCVADTVYWGQGTLVTVSS
VL: QSVLTQPPSVSEAPRQRVTISCSGSSSNIGNNAVNWYQQLPGEAPKLLIYYDDLLPSGVSDRFSGSKSGSSASLAISGLQAEDEADYYCATWDDSLNAWVFGGGTKVTVL
notes: phage scFv
binding result [1]: binds

B15: hN1S3-082 (scFv, V domains shown)
VH: QVQLVQSGPEVKKPGTSVKVSCKASGFTFTSSAVQWVRQARGQRLEWIGWIVVGSGNTNYAQKFQERVTITRDMSTSTAYMELSSLRSEDTAVYYCVADTVYWGRGTLVTVSS
VL: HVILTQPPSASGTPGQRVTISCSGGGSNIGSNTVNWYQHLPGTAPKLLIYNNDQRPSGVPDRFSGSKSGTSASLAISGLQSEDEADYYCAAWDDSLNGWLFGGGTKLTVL
notes: phage scFv
binding result [1]: binds

B16: hN1S3-077 (scFv, V domains shown)
VH: EVQLVQSGAEVKKPGAPVKVSCKTSGYGFSNYYMHWVRQAPGQGLEWLGMINPSDGSQHFAQRFRDRVSFTSDTSTSAVYMELAGLRSDDTAVYYCAREKANSMYFDYWGQGTLVTVSS
VL: QSVVTQPPSLSAAPGQRVTISCSGSHSNIGNFYVSWYQQVPGAAPKLLIYDNNERPSGIPDRFSGSKSGTSATLDITGLQTGDEADYYCSTWDRSLSASVFGSGTKLTVL
notes: phage scFv
binding result [1]: binds

B17: N1wc175 (scFv, V domains shown)
VH: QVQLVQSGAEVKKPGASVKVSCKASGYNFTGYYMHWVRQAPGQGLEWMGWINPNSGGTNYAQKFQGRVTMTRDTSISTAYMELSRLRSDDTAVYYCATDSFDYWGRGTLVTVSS
VL: QSVLTQPPSASGTPGQRVTISCSGSRSSIGSNTVSWYQQLPGTAPKLIIYTNNQRPSGVPDRFSGSKSGTSATLAISGLQSEDEADYYCASWDDSLNDYVFGVGTKVTVL
notes: phage scFv
binding result [2]: binds

B18: N1wc625 (scFv, V domains shown)
VH: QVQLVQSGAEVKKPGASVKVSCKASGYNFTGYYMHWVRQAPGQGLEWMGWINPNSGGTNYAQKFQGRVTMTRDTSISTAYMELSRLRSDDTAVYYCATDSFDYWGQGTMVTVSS
VL: QSVLTQPPSASGTPGQRVTISCSGGRSNIGTNYVYWYQKLPGTAPKSLIYTTNQRPSGVPDRFSGSKAGTSASLAISGLRSEDEGDYYCASWDESLNGVVFGGGTKVTVL
notes: phage scFv
binding result [2]: binds

B19: hN1S3-130 (scFv, V domains shown)
VH: KVQLVQSGAEVKKPGASVKVSCKASGYTFTDFYIHWVRQAPGQGLEWMGWINSKSGDTHYAQKFQGRVTLTRDTSTDTAYMELSRLTSDDTAVYYCARGAYDYVWGSSRYVADAFDIWGRGTMVTVSS
VL: DIVMTQSPSTLSASVGDRVTITCRASQGISSWLAWYQQKPGRAPKVLIYKASTLESGVPSRFSGSGSGTDFTLTISSLQPEDFATYYCQQSYSTPWTFGQGTKLEIK
notes: phage scFv
binding result [1]: binds

Reference: patent US20110286916A1 (published 2011)
